Tested on: retinal microglia
Assay: Bulk RNA-seq gene profiling of isolated retinal microglial cultures, with or without LPS
Assay type: cell-based, mouse
Experimental: We performed RNA-seq using four Igfbpl1−/− mice retina and four WT mice retina. The raw data was quality controlled and aligned on Mus musculus (mouse) reference genome (GRCm38) with STAR v2.5.0a (PMID: 23104886), FeatureCount (v0.6.1) (PMID: 24227677) was used to count the number of read mapped to each gene. Transcripts Per Million (TPM) was calculated for each gene based on the length of the gene and reads mapped to that gene. Differential expression analysis between Igfbpl1^−/− and WT mice was performed using the DESeq2 R package (v1.22.2) (PMID: 25516281). gene set over representation analysis for the differentially expressed genes was performed with the same above described method. We also downloaded lists of genes with function related to “Microglia”, “Astroglia”, “neuron”, and “photoreceptor” from genecard (www.genecards.org) with relevance score>5, and determined the percentage of and calculated the proportion of differentially expressed genes in each of those gene lists. […]
To investigate if IGFBPL1 directly mediates microglial function, we studied gene profiling changes in isolated microglial cultures treated by IGFBPL1. Retinal microglia were purified from mice expressing green fluorescence protein (GFP) driven under a microglial specific promoter Cx3cr1 (Cx3cr1-Gfp) using fluorescence-activated cell sorting (FACS)^12. […]

B1: IGFBPL1: insulin-like growth factor binding protein like protein 1; recombinant protein (R&D system, 4130-BL) (protein)
chain: LGLRDAGRRHPECSPCQQDRCPAPSPCPAPWISARDECGCCARCLGAEGASCGGPVGSRCGPGLVCASRASGTAPEGTGLCVCAQRGAVCGSDGRSYSSICALRLRARHAPRAHHGHLHKARDGPCEFAPVVLMPPRDIHNVTGTQVFLSCEVKAVPTPVITWKKVKHSPEGTEGLEELPGDHVNIAVQVRGGPSDHETTSWILINPLRKEDEGVYHCHAANAIGEAQSHGTVTVLDLNRYKSLYSSVPGDLL
IGFBPL1 added 6 hr after LPS stimulation
  Reversal of LPS-induced microglial gene profile (bulk RNA-seq): completely reverted LPS-induced microglial gene profile to the control level
IGFBPL1 alone, no LPS
  Microglial gene profile versus vehicle controls (bulk RNA-seq): no different between cultures treated with IGFBPL1 alone and vehicle controls

Reference: US20250051458A1, “Methods for Treating Neurodegeneration Targeting IGF1/IGF1R” (The Schepens Eye Research Institute, Inc., priority 2021, published 2025)
